Tests used:
HLA-A*01:01 = assay: IEDB peptide-MHC binding, purified MHC/competitive/radioactivity; filed as Kd, often an IC50 or EC50 that approximates it; ≥ and ≤ were set here for values at or beyond the usual limits of such assays
HLA-A*23:01 = assay: as above
HLA-A*24:02 = assay: as above
HLA-A*26:01 = assay: as above
HLA-A*29:02 = assay: as above
HLA-A*30:02 = assay: as above
HLA-A*32:01 = assay: as above
HLA-A*03:01 = assay: as above
HLA-A*11:01 [1] = assay: as above
HLA-A*31:01 = assay: as above
HLA-A*33:01 = assay: as above
HLA-A*68:01 = assay: as above
HLA-B*44:02 = assay: as above
HLA-B*44:03 = assay: as above
HLA-B*57:01 = assay: IEDB peptide-MHC binding, purified MHC/direct/fluorescence; filed as Kd, often an IC50 or EC50 that approximates it; ≥ and ≤ were set here for values at or beyond the usual limits of such assays; settings: source organism: Yersinia pestis Antiqua
HLA-B*58:01 = assay: as above; settings: source organism: Yersinia pestis Antiqua
HLA-A*11:01 [2] = assay: as above; settings: source organism: SARS-CoV1
HLA-B*15:01 = assay: as above; settings: source organism: SARS-CoV1
[3] = source organism: SARS coronavirus Tor2
[4] = source organism: Dengue virus 3 Martinique/1243/1999
[5] = source organism: Mammarenavirus lassaense
[6] = source organism: Mammarenavirus guanaritoense
[7] = source organism: Dengue virus 2 Jamaica/1409/1983
[8] = source organism: Dengue virus 1 Singapore/S275/1990
[9] = source organism: Dengue virus 4 Philippines/H241/1956
[10] = source organism: Dengue virus 1 Brazil/97-11/1997
[11] = source organism: Vaccinia virus WR
[12] = source organism: Triticum aestivum
[13] = source organism: Mammarenavirus machupoense

## FTILCLVPAY
HLA-A*01:01; [3]
  Kd: 0.456 µM
HLA-A*23:01; [3]
  Kd: ≥ 70 µM
HLA-A*24:02; [3]
  Kd: ≥ 70.3 µM
HLA-A*26:01; [3]
  Kd: 0.0106 µM
HLA-A*29:02; [3]
  Kd: 0.0155 µM
HLA-A*30:02; [3]
  Kd: 0.329 µM

## FAGKTVWFVP
HLA-A*32:01; [4]
  Kd: ≥ 26.6 µM

## PEDPIEVALY
HLA-A*01:01; [5]
  Kd: ≥ 70.4 µM
HLA-A*23:01; [5]
  Kd: ≥ 70 µM
HLA-A*24:02; [5]
  Kd: ≥ 70.3 µM
HLA-A*26:01; [5]
  Kd: ≥ 69.7 µM
HLA-A*29:02; [5]
  Kd: 10.1 µM
HLA-A*30:02; [5]
  Kd: 1.22 µM

## VPDIPELSY
HLA-A*01:01; [6]
  Kd: 3.07 µM
HLA-A*23:01; [6]
  Kd: ≥ 77.7 µM
HLA-A*24:02; [6]
  Kd: ≥ 77.5 µM
HLA-A*26:01; [6]
  Kd: ≥ 49.3 µM
HLA-A*29:02; [6]
  Kd: 11.7 µM
HLA-A*30:02; [6]
  Kd: ≥ 25.3 µM

## AFNCTFEYI
HLA-A*01:01; [3]
  Kd: 1.4 µM
HLA-A*23:01; [3]
  Kd: 9.36 µM
HLA-A*24:02; [3]
  Kd: ≥ 70.3 µM
HLA-A*26:01; [3]
  Kd: 0.0861 µM
HLA-A*29:02; [3]
  Kd: 0.322 µM
HLA-A*30:02; [3]
  Kd: 1.4 µM

## SGCVVSWKNK
HLA-A*32:01; [7]
  Kd: 9.64 µM

## SAAAYFVGY
HLA-A*01:01; [3]
  Kd: 0.311 µM
HLA-A*03:01; [3]
  Kd: 0.0897 µM
HLA-A*11:01 [1]; [3]
  Kd: 0.0328 µM
HLA-A*23:01; [3]
  Kd: 6.1 µM
HLA-A*24:02; [3]
  Kd: 3.87 µM
HLA-A*26:01; [3]
  Kd: 0.0855 µM
HLA-A*29:02; [3]
  Kd: 0.0655 µM
HLA-A*30:02; [3]
  Kd: 0.0177 µM
HLA-A*31:01; [3]
  Kd: ≥ 26.3 µM
HLA-A*33:01; [3]
  Kd: ≥ 21.5 µM
HLA-A*68:01; [3]
  Kd: 0.106 µM

## HEHKSTWHY
HLA-B*44:02; [8]
  Kd: 0.0198 µM
HLA-B*44:03; [8]
  Kd: 0.00911 µM

## TGCAVSWSGK
HLA-A*32:01; [9]
  Kd: 8.44 µM

## MEIRPVKEK
HLA-B*44:02; [10]
  Kd: 0.64 µM
HLA-B*44:03; [10]
  Kd: 1.01 µM

## AIMFFPRTI
HLA-A*32:01; [11]
  Kd: 0.00112 µM

## AETWMSSEG
HLA-B*44:02; [9]
  Kd: 0.425 µM

## NEMGLLETT
HLA-B*44:03; [10]
  Kd: 8.03 µM

## MANICWIYY
HLA-B*57:01
  Kd: 0.256 µM
HLA-B*58:01
  Kd: 0.0433 µM

## TAEDMLNPNY
HLA-A*01:01; [3]
  Kd: 1.04 µM
HLA-A*23:01; [3]
  Kd: ≥ 70 µM
HLA-A*24:02; [3]
  Kd: ≥ 70.3 µM
HLA-A*26:01; [3]
  Kd: 17.6 µM
HLA-A*29:02; [3]
  Kd: 5.5 µM
HLA-A*30:02; [3]
  Kd: 1.07 µM

## SETFSMGLLC
HLA-B*44:03; [9]
  Kd: 0.0829 µM

## LQSLENVAY
HLA-A*11:01 [2]
  Kd: ≥ 44.7 µM
HLA-B*15:01
  Kd: 0.161 µM
HLA-A*01:01; [3]
  Kd: ≥ 42.3 µM
HLA-A*23:01; [3]
  Kd: ≥ 77.8 µM
HLA-A*24:02; [3]
  Kd: ≥ 77.6 µM
HLA-A*26:01; [3]
  Kd: ≥ 81.5 µM
HLA-A*29:02; [3]
  Kd: 6.67 µM
HLA-A*30:02; [3]
  Kd: 0.617 µM

## LSFKELLVY
HLA-A*01:01; [3]
  Kd: 0.0853 µM
HLA-A*23:01; [3]
  Kd: 2.49 µM
HLA-A*24:02; [3]
  Kd: 9.23 µM
HLA-A*26:01; [3]
  Kd: 10.9 µM
HLA-A*29:02; [3]
  Kd: 0.00155 µM
HLA-A*30:02; [3]
  Kd: 0.0508 µM

## KSQVLQQSTY
HLA-A*01:01; [12]
  Kd: 0.678 µM
HLA-A*03:01; [12]
  Kd: ≥ 21.7 µM
HLA-A*11:01 [1]; [12]
  Kd: ≥ 22.1 µM
HLA-A*23:01; [12]
  Kd: ≥ 39 µM
HLA-A*24:02; [12]
  Kd: ≥ 70.3 µM
HLA-A*26:01; [12]
  Kd: ≥ 102 µM
HLA-A*29:02; [12]
  Kd: 12 µM
HLA-A*30:02; [12]
  Kd: 0.26 µM
HLA-A*31:01; [12]
  Kd: ≥ 47.2 µM
HLA-A*33:01; [12]
  Kd: ≥ 70 µM
HLA-A*68:01; [12]
  Kd: ≥ 70.2 µM

## VTPSGTWLTY
HLA-A*01:01; [3]
  Kd: 0.0661 µM
HLA-A*23:01; [3]
  Kd: ≥ 49.1 µM
HLA-A*24:02; [3]
  Kd: ≥ 57.7 µM
HLA-A*26:01; [3]
  Kd: 0.392 µM
HLA-A*29:02; [3]
  Kd: 0.0661 µM
HLA-A*30:02; [3]
  Kd: 0.0453 µM

## TELKYSWKTW
HLA-A*32:01; [7]
  Kd: 4.27 µM
HLA-B*44:02; [7]
  Kd: 0.0379 µM
HLA-B*44:03; [7]
  Kd: 0.0239 µM

## PITAAAWYLW
HLA-A*32:01; [7]
  Kd: 1.68 µM

## GTHYQNHGF
HLA-A*32:01; [11]
  Kd: 0.00602 µM

## EMICFHEFL
HLA-A*23:01; [13]
  Kd: 6.96 µM
HLA-A*24:02; [13]
  Kd: ≥ 40.9 µM
HLA-A*29:02; [13]
  Kd: 11.3 µM

## SQSDTVFDH
HLA-A*01:01; source organism: Variola virus
  Kd: ≥ 23.8 µM
HLA-A*23:01; source organism: Variola virus
  Kd: ≥ 44.4 µM
HLA-A*24:02; source organism: Variola virus
  Kd: ≥ 77.5 µM
HLA-A*26:01; source organism: Variola virus
  Kd: ≥ 77.9 µM
HLA-A*29:02; source organism: Variola virus
  Kd: ≥ 48.3 µM
HLA-A*30:02; source organism: Variola virus
  Kd: ≥ 76.9 µM

## KEEESEGAIW
HLA-B*44:02; [4]
  Kd: 0.0584 µM
HLA-B*44:03; [4]
  Kd: 0.0909 µM

## VTYELRYTL
HLA-A*32:01; source organism: Vaccinia virus Copenhagen
  Kd: 0.0119 µM

## ASLVMLLVHY
HLA-A*01:01; [9]
  Kd: 1.83 µM
HLA-A*30:02; [9]
  Kd: 1.9 µM
HLA-B*44:03; [9]
  Kd: ≥ 70.1 µM

## DFAGKTVWF
HLA-A*23:01; [4]
  Kd: 6.48 µM
HLA-A*24:02; [4]
  Kd: 3.03 µM

## GEVGAIALDF
HLA-B*44:02; [10]
  Kd: 0.0215 µM
HLA-B*44:03; [10]
  Kd: 0.0235 µM

Reference: the Immune Epitope Database (IEDB)
